Results published in patent publication US8030017B2, “Thermostable luciferases and methods of production” (Promega Corporation, priority 1997, dated 2011).

Assays:
Format in all cases: biochemical
[1] = Robotic quantitative screen of E. coli lysates: luminescence activity (Li), expression/specific activity; settings: relative value; Control is Luc85-4F12 at 65° C. (=1)
Experimental: A plate containing cells is retrieved from the carousel and placed on the shaker for 3-5 minutes to fully mix the cells. The cells tend to settle from solution upon standing.
To measure Optical Density (O.D.), the plate is moved from the shaker to the locator near the luminometer; the lid is removed and the plate placed into the luminometer. The O.D. is measured using a 620 nm filter.
To prepare a cell lysate, the plate of cells is first retrieved from the refrigerator and mixed on the shaker to resuspend the cells. A new plate from the carousel without a lid is placed in the reagent dispenser and 20 μl of Buffer A is added to each well. This is placed in the pipetting station.
The plate is then moved to the reagent dispenser to add 175 μl of Buffer B, and then mixed on the shaker for about 15 minutes or more. The combination of the freeze/thaw and Buffer B will cause the cells to lyse.
(§1) One daughter plate is placed in the luminometer and the 1X assay method is used. After the assay, the plate is placed in the ambient incubator, and the second daughter plate is placed in the luminometer. For the second plate, the 0.02X assay method is used. This plate is discarded, and the first plate is returned from the incubator to the luminometer. The repeat assay method is used (i.e., no reagent is injected). Afterwards, the plate is again returned to the ambient incubator.
1X Assay reagent: 5 μM Luciferin; 175 μM ATP; 20 mM Tricine, pH 8.0; 0.1 mM EDTA
(§2) The following criteria were used for screening purposes. The temperature chosen for the enzyme stability parameter was such that the parent enzyme would decay 100 to 1000 fold over 10 hours (see Table 1). Criteria 1 is achieved manually; data for criteria 2-6 is generated by robotic analysis. For all criteria, the maximum value as described is selected. • 1. In vivo screen. The brightest clones are selected at a given temperature. • 2. Expression/specific activity. The value for normalized luminescence is calculated as the ratio of luminescence to optical density. The value is reported as the ratio with the reference value. • 3. Enzyme stability. Measurements of normalized luminescence of the incubated samples (3 taken over about 15 hours) are fitted to In(L)=In(L0)−(t/τ), where L is normalized luminescence and t is time. τ is a measure of the enzyme stability. The value is reported as the ratio with the reference value, and the correlation coefficients are calculated. • 4. Substrate binding. Measurements of normalized luminescence with 1X and 0.02X are taken at the initial reading set, and 1X and 0.06X are taken at the 5 hour set. The ratio of the 0.02X:1X and 0.06X:1X gives the relative luminescence at 0.02X and 0.06X concentrations. These values, along with the relative luminescence at 1X (i.e., 1), are fitted to a Lineweaver-Burk plot to yield the Km:app,total for the substrates ATP, luciferin, and CoA. The values are reported as the inverse ratio with the reference value, and the correlation coefficients are calculated. • 5. Signal stability. The luminescence of the initial IX luminescent reactions are re-measured 3 additional times over about 15 hours. These values are fitted to In(L)=In(L0)−(t/τ) and the integral over t (15 hours) is calculated. Signal stability is then calculated as S=(1−int(L)/L0t)^2. The values are reported as the inverse ratio with the reference value, and the correlation coefficients are calculated. • 6. Composite fitness. The values of criteria 2 through 5 are combined into a single composite value of fitness (or commercial utility). This value is based on a judgment of the relative importance of the other criteria. This judgment is given below:
Normalize luminescence data: For each measurement of luminescence in the eight daughter plates, the normalized luminescence is calculated by dividing the relative light units by the optical density of the original plate. […]

[2] = Robotic quantitative screen of E. coli lysates: signal stability (S), sustained enzymatic turnover; settings: inverse ratio with reference; Control is Luc85-4F12 at 65° C. (=1)
Experimental: as §1
The plate in the ambient incubator is returned to the luminometer and the repeat assay method is again used. The plate is returned afterwards to the ambient incubator.
The plate in the ambient incubator is returned to the luminometer and the repeat assay method is again used. The plate is discarded afterwards.
as §2
Calculate signal stability (S): For each sample, use linear regression to fit In(L)=In(L0)[…] using the four luminescence measurements of the initial microplate with 1X substrate concentrations (Plates 1, 3, 4, and 7). Also calculate the regression coefficient. From the calculated values of T and L0, calculate the integral of luminescence by int(L)=τL0(1−exp(−tf/τ)), where tf is the average time of the last measurement (e.g., 15 hours). The signal stability is calculated as S=(1−int(L)/Litf)^2, where Li is the initial measurement of normalized luminescence with 1× substrate concentration (Plate 1).
[Note: To correct for evaporation, an equation S=(1+K−int(L)/Litf)^2, may be used where 1/K=2(relative change of liquid volume at tf).]
Calculate the reference-normalized values: For the criteria parameter of each sample, a reference-normalized value is determined by calculating the ratio or inverse ratio with the respective reference value. […]

[3] = Michaelis-Menten constant for ATP of purified mutants; settings: purified enzyme
Source text: Substrate binding was screened by measuring an apparent composite Km (see Example 2) for luciferin and ATP. […] The Km for luciferin rose while the Km for ATP declined (Table 3). The reason for this change is unknown, although it can be speculated that more efficient release of oxyluciferin or luciferin inhibitors could lead to more rapid enzyme turnover.
Protein purification: Four mutants that are described herein (Luc[T249M], Luc49-7C6, Luc78-0B10, and Luc90-1B5) were purified using a previously published procedure (Hastings et al., 1996).

B1: Luc90-1B5: mutant luciferase, SEQ ID NO:24 (protein)
chain: MADKNILYGPEPFYPLEDGTAGEQMFDALSRYADIPGCIALTNAHTKENVLYEEFLKLSCRLAESFKKYGLKQNDTIAVCSENGLQFFLPVIASLYLGIIVAPVNDKYIERELIHSLGIVKPRIVFCSKNTFQKVLNVKSKLKSIETIIILDLNEDLGGYQCLNNFISQNSDSNLDVKKFKPYSFNRDDQVALIMFSSGTTGLPKGVMLTHKNIVARFSLAKDPTFGNAINPTTAILTVIPFHHGFGMMTTLGYFTCGFRVVLMHTFEEKLFLQSLQDYKVESTLLVPTLMAFLAKSALVEKYDLSHLKEIASGGAPLSKEIGEMVKKRFKLNFVRQGYGLTETTSAVLITPKGDAKPGSTGKIVPFHAVKVVDPTTGKILGPNEPGELYFKGPMIMKGYYNNEEATKAIIDNDGWLRSGDIAYYDNDGHFYIVDRLKSLIKYKGYQVAPAEIEGILLQHPYIVDAGVTGIPDEAAGELPAAGVVVQTGKYLNEQIVQDYVASQVSTAKWLRGGVKFLDEIPKGSTGKIDRKVLRQMFEKHTNG
modifications: Mutant luciferase
- Luminescence (Li) [1]: 1.4743
- Signal stability (S) [2]: 1.0011
- Km [3]: 3 µM
